Test results published in patent US20210230292A1 (DIATHEVA S R L, published 2021).

Biological target: T1, human CD99ecd/GST (human, UniProt P14209 23-122)
T1 construct: Expressed in E. coli BL21(DE3), purified on Glutathione Sepharose; also called CD99ecd/GST antigen; recombinant CD99; not shown: glutathione-S-transferase as encoded by vector pGEX-2T (GE Healthcare); CD99ecd fused downstream of it through the BamHI
T1 sequence: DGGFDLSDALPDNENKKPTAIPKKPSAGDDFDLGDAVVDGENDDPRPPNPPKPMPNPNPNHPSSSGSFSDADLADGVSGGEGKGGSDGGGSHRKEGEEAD
Test: competitive ELISA (Rath 1988), CD99ecd/GST coated and soluble CD99ecd/GST as inhibitor
Procedure: The binding affinity, expressed as the dissociation constant (kd) of scFv C7, C7dAbd, C7IgG4 and C7IgG1 for CD99, was determined by analysing the saturation of binding at equilibrium with a competitive ELISA assay according to the procedure described in Rath S 1988 with small variations. […] For this purpose, 96-well plates were sensitized by distributing 500 ng/well of CD99ecd/GST diluted in 0.5M carbonate buffer, pH 9.6, and incubating ON at 4° C. After 3 washes with PBS supplemented with 0.05% V/V of Tween20, the plates were blocked with a 1% W/V solution of BSA in PBS (PBSB), pH 7.4, for 60 min. at 37° C. After washing, the plates were incubated for 1 hour at 37° C. with serial dilutions of C7 (from 200 μg/ml to 0.03 μg/ml in triplicate) diluted in PBSB and dispensed (100 μl/well). The plates were incubated at 37° C. for 90 minutes. After washing a dilution of polyclonal anti-scFv diluted 1:500 in PBSB was dispensed, 100 μl/well, and incubated for 60 minutes at 37° C. […]
A competitive ELISA assay was then set up. […] The scFvC7 and C7 diabody signal was determined by dispensing, in a first step, a polyclonal anti-scFv antibody generated in rabbits immunized with scFvC7 and diluted 1:500 v/v in PBSB and subsequently with an anti-rabbit HRP diluted 1:1000 v/v. […]

| Kd [µM] | Binder |
| --- | --- |
| 0.00586 | C7IgG4 (antibody, VH and VL of scFvC7 fused to human IgG4 constant regions; produced in Expi293F cells; also called IgG4wt; C7IgG4 wt) heavy: not shown light: SSELTQDPAVSVALGQTVRITCQGDSLRSYYASWYQQKPGQAPVLVIYGKNNRPSGIPDRFSGSSSGNTASLTITGAQAEDEADYYCNSSFPRTSSVVFGGGTKLTVLGQPKANPTVTLFPPSSEELQANKATLVCLISDFYPGAVTVAWKADGSPVKAGVETTKPSKQSNNKYAASSYLSLTPEQWKSHRSYSCQVTHEGSTVEKTVAPTECS |
| 9 | C7IgG1 (antibody, VH and VL of scFvC7 fused to human IgG1 constant regions; produced in Expi293F cells) heavy: not shown light: SSELTQDPAVSVALGQTVRITCQGDSLRSYYASWYQQKPGQAPVLVIYGKNNRPSGIPDRFSGSSSGNTASLTITGAQAEDEADYYCNSSFPRTSSVVFGGGTKLTVLGQPKANPTVTLFPPSSEELQANKATLVCLISDFYPGAVTVAWKADGSPVKAGVETTKPSKQSNNKYAASSYLSLTPEQWKSHRSYSCQVTHEGSTVEKTVAPTECS |
